{
  "source": "paper PMC11518761",
  "about": "“Making the effect visible – OX40 targeting nanobodies for in vivo imaging of activated T cells” (Frontiers in Immunology, 2024)",
  "binders": {"B1": {"name": "recombinant hOX40, extracellular part (Leu 29 - Ala 216) (domain or fragment)", "chain": "LHCVGDTYPSNDRCCHECRPGNGMVSRCSRSQNTVCRPCGPGFYNDVVSSKPCKPCTWCNLRSGSERKQLCTATQDTVCRCRAGTQPLDSYKPGVDCAPCPPGHFSPGDNQACKPWTNCTLAGKHTLQPASNSSDAICEDRDPPATQPQETQGPPARPITVQPTEAWPRTSQGPSTRPVEVPGGRAVA"}, "B2": {"name": "hOX40-Nb O18 (VHH)", "VHH": "QVQLVESGGGLVQPGGSLRLSCAASGFTLEDYVIGWFRQAPGKEREEVSCISGSGGIRNVADSMEGRATISRDNAKNTVYLQMNSLKPEDTAVYYCAAGFETSYSYSYYCGVHEYDYWGQGTLVTVSS", "modifications": "biotin where immobilised in BLI (site not stated)"}, "B3": {"name": "hOX40-Nb O19 (VHH)", "VHH": "QVQLQESGGGLVQPGGSLRLSCAGSTDTFSMSAAVSWARQAPGKGLEWVSSILSDGSTYYADSVRGRFTISRDNANNTGSLQMNNLKVEDTAVYYCTNLRGRLWSNHKDDYGGQGSRVTVSS", "modifications": "biotin where immobilised in BLI (site not stated)"}, "B4": {"name": "hOX40-Nb O7 (VHH)", "VHH": "DVQLVESGGGLVQPGGSLRLSCAASGFTFGSYAMGWARQVPGKGLEWVSGIYSDGSTYYADSVKGRFTISRDNAKNTVYLQMNSLKPEDTAVYYCATWGAAAPYDYWGQGTQVTVSS", "modifications": "biotin where immobilised in BLI (site not stated)"}, "B5": {"name": "hOX40-Nb O12 (VHH)", "VHH": "DVQLQESGGGLVQPGGSLRLSCAASGFTLDNYAIGWFRQAPGKEREGVSCISSSGESTNYADSVKGRFTISRDNAKNTVYLQTNSLKPEDTAVYYCAAVDDIGTTVQFMCNMGPYEYDYWGQGSPVTVSS", "modifications": "biotin where immobilised in BLI (site not stated)"}, "B6": {"name": "AF647-labeled hOX40-Nb O12 (VHH)", "VHH": "B5 VHH", "modifications": "C-terminal Gly-Gly-Gly-propyl-azide attached by sortase A and clicked to DBCO-AF647 (labeling ratio 1:1)"}, "B7": {"name": "AF647-labeled hOX40-Nb O19 (VHH)", "VHH": "B3 VHH", "modifications": "C-terminal Gly-Gly-Gly-propyl-azide attached by sortase A and clicked to DBCO-AF647 (labeling ratio 1:1)"}, "B8": {"name": "AF647-labeled hOX40-Nb O7 (VHH)", "VHH": "B4 VHH", "modifications": "C-terminal Gly-Gly-Gly-propyl-azide attached by sortase A and clicked to DBCO-AF647 (labeling ratio 1:1)"}, "B9": {"name": "AF647-labeled hOX40-Nb O19 (VHH)", "VHH": "B3 VHH", "notes": "Uncoupled Nb was removed by Ni-NTA, so the His tag is probably lost on sortase coupling (surmised); also called fluorescent Nb O19; source: E. coli XL-1, purified; sortase A coupling, click labelling with DBCO-AF647, HIC"}, "B10": {"name": "AF647-labeled hOX40-Nb O7 (VHH)", "VHH": "B4 VHH", "notes": "Uncoupled Nb was removed by Ni-NTA, so the His tag is probably lost on sortase coupling (surmised); also called fluorescent Nb O7; source: E. coli XL-1, purified; sortase A coupling, click labelling with DBCO-AF647, HIC"}, "B11": {"name": "AF647-labeled hOX40-Nb O18 (VHH)", "VHH": "B2 VHH", "notes": "Uncoupled Nb was removed by Ni-NTA, so the His tag is probably lost on sortase coupling (surmised); also called O18_(AF647); fluorescently-labeled Nb O18; source: E. coli XL-1, purified; sortase A coupling, click labelling with DBCO-AF647, HIC"}, "B12": {"name": "hOX40-Nb O7 (VHH)", "VHH": "B4 VHH", "notes": "source: E. coli XL-1 (pHEN6), purified (IMAC, SEC)"}, "B13": {"name": "hOX40-Nb O19 (VHH)", "VHH": "B3 VHH", "notes": "as for B12"}, "B14": {"name": "AF647-labeled hOX40-Nb O12 (VHH)", "VHH": "B5 VHH", "notes": "Uncoupled Nb was removed by Ni-NTA, so the His tag is probably lost on sortase coupling (surmised); also called fluorescent Nb O12; source: E. coli XL-1, purified; sortase A coupling, click labelling with DBCO-AF647, HIC"}},
  "key": {"[1]": {"target": "hOX40-Nbs with KD values in the pico- to low nanomolar range (O12, O18 and O19)", "test": "BLI; biotinylated Nb (5 µg/mL) immobilised on streptavidin biosensors; hOX40 dilution series 0.2 nM - 320 nM, association 300 s, dissociation 720 s; Octet buffer (PBS, 0.1% BSA, 0.02% Tween20); 1:1 ligand-binding model, global fitting"}, "[2]": {"target": "T1, recombinant hOX40, extracellular part (Leu 29 - Ala 216) (human, UniProt P43489 29-216)", "T1 chain": "B1 chain", "test": "BLI"}, "[3]": {"target": "T1, recombinant hOX40, extracellular part …", "test": "BLI"}, "[4]": {"target": "T2, hOX40 full length on U2OS cells (U2OS-hOX40) (human, UniProt P43489 29-277)", "T2 chain": "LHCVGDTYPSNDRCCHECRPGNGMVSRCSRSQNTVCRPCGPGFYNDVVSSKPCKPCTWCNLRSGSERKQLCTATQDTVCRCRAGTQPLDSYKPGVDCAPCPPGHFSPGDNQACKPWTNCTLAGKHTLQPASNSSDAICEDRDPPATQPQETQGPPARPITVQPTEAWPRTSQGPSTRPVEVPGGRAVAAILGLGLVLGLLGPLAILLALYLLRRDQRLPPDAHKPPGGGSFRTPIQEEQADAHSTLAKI", "test": "FACS"}, "[5]": {"target": "T3, endogenous hOX40 on activated human T cells (Homo sapiens, UniProt P43489)", "T3 construct": "human OX40 (CD134/TNFRSF4), endogenous on T cells; also called physiologically expressed hOX40; source: endogenous, hPBMCs of healthy donors stimulated 24 h with PHA-L and IL-2 (CD3+ T cells)", "test": "flow cytometry on cells; hPBMCs of three donors after 24 h PHA-L/IL-2 stimulation, AF647-labeled Nbs (200 nM; 400 nM for T cell subpopulations), 4°C, gated on CD3+ (and CD4+, CD8+, Treg)", "details": "one partner purified"}, "[6]": {"target": "T4, hOX40 full length on U2OS cells (U2OS-hOX40) (Homo sapiens, UniProt P43489)", "T4 construct": "human OX40 (CD134/TNFRSF4), cDNA GenBank NM_003327.3 in an IRES-eGFP/Blasticidin S deaminase vector; Also used as the target of the functional rows, where hOX40 stood on Jurkat-based OX40 effector cells (Promega); also called cellular expressed hOX40; hOX40 full length (D1-4); source: U2OS cells stably overexpressing hOX40, on the cell surface", "test": "flow cytometry on cells; U2OS-hOX40 cells with dilution series of AF647-labeled Nbs (O12, O18 from 2.5 µM; O7, O19 from 10 µM), 4°C, 30 min, FACS buffer; KD as half-maximum binding at equilibrium, four-parametric sigmoidal model", "details": "one partner purified"}, "[7]": {"target": "T5, murine OX40 on U2OS cells (Mus musculus, UniProt P47741)", "T5 construct": "murine OX40, DNA bought from Sino Biological (Catalog Number MG50808-NM); The catalogue suffix -NM may denote an N-terminal Myc tag (surmised); also called mOX40; source: U2OS cells, transiently transfected, on the cell surface", "T5 sequence (P47741 20-272)": "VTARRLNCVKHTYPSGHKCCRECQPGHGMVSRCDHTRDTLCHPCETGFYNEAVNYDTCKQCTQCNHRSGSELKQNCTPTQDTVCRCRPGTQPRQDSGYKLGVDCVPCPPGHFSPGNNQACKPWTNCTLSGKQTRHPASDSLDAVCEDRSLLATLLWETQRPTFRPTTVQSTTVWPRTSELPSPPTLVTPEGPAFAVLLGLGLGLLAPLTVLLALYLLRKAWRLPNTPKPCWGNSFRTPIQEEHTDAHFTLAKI", "test": "immunostaining of cells or tissue; live-cell immunofluorescence of U2OS cells expressing hOX40 (stable) or murine OX40 (transient) with 10 -1000 nM AF647-labeled Nbs, 30 min, 4°C", "details": "one partner purified"}, "[8]": {"target": "T6, human OX40 on HT1080 cells (HT1080-hOX40) (Homo sapiens, UniProt P43489)", "T6 construct": "human OX40 (CD134/TNFRSF4); the construct used for HT1080 cells is not described; source: HT1080 cells stably expressing human OX40, as subcutaneous xenograft tumors in CD1 nude mice", "test": "in vivo optical imaging; 5 µg O18-AF647 i.v. in CD1 nude mice with subcutaneous HT1080-hOX40 or HT1080-WT tumors; imaging over 6 h and ex vivo imaging of explanted tumors", "details": "one partner purified"}, "[9]": {"target": "T7, recombinant hOX40, extracellular part (Leu 29 - Ala 216) (human, UniProt P43489)", "T7 construct": "human OX40 (CD134/TNFRSF4), extracellular part, Leu29 to Ala216; The limits are stated for the immunogen; the BLI methods say only 'hOX40' / 'recombinant hOX40'; also called CD134; TNFRSF4; source: bought: Acrobiosystems, produced in human HEK293 cells", "test": "BLI; biotinylated Nb (5 µg/mL) immobilised on streptavidin biosensors; hOX40 dilution series 0.2 nM - 320 nM, association 300 s, dissociation 720 s; Octet buffer (PBS, 0.1% BSA, 0.02% Tween20); 1:1 ligand-binding model, global fitting", "details": "both partners purified"}},
  "data": [
    {"binder": "B1", "values": [
      {"measurement": "Kd", "setting": "[1]", "value": "0.2 to 3.4", "unit": "nM"}
    ]},
    {"binder": "B2", "values": [
      {"measurement": "Kd", "setting": "[2]", "value": 1.93, "unit": "nM"},
      {"measurement": "koff", "setting": "[3]", "value": 0.00075, "unit": "s⁻¹"}
    ]},
    {"binder": "B3", "values": [
      {"measurement": "Kd", "setting": "[2]", "value": 3.41, "unit": "nM"},
      {"measurement": "koff", "setting": "[3]", "value": 0.00021, "unit": "s⁻¹"}
    ]},
    {"binder": "B4", "values": [
      {"measurement": "koff", "setting": "[3]", "value": 0.00117, "unit": "s⁻¹"}
    ]},
    {"binder": "B5", "values": [
      {"measurement": "Kd", "setting": "[2]", "value": 0.21, "unit": "nM"},
      {"measurement": "koff", "setting": "[3]", "value": "2e-05", "unit": "s⁻¹"}
    ]},
    {"binder": "B6", "values": [
      {"measurement": "Kd", "setting": "[4]", "value": 0.07, "unit": "nM"}
    ]},
    {"binder": "B7", "values": [
      {"measurement": "Kd", "setting": "[4]", "value": 9.95, "unit": "nM"}
    ]},
    {"binder": "B8", "values": [
      {"measurement": "Kd", "setting": "[4]", "value": 5.99, "unit": "nM"}
    ]},
    {"binder": "B9", "values": [
      {"measurement": "binding result", "setting": "[5]", "value": "binds"},
      {"measurement": "binding result", "setting": "[6]", "value": "binds"}
    ]},
    {"binder": "B10", "values": [
      {"measurement": "binding result", "setting": "[7]", "value": "binds"}
    ]},
    {"binder": "B11", "values": [
      {"measurement": "fold signal intensity in HT1080-hOX40 over HT1080-WT tumors, 6 h post injection", "setting": "[8]", "value": "~7", "unit": "fold"},
      {"measurement": "Kd", "setting": "[6]", "value": "~0.3", "unit": "nM"}
    ]},
    {"binder": "B12", "values": [
      {"measurement": "Kd", "setting": "[9]", "value": "~150", "unit": "nM"}
    ]},
    {"binder": "B13", "values": [
      {"measurement": "binding result", "setting": "[9]", "value": "binds"}
    ]},
    {"binder": "B14", "values": [
      {"measurement": "Kd", "setting": "[6]", "value": "~0.1", "unit": "nM"}
    ]}
  ]
}
